For the assay, the target named is T1, GST-tagged HK2 (human, UniProt P52789 1-917).
T1 construct: Hexokinase 2 (HK2), human cDNA cloned into pGEX-4T-1; also called GST-HK2; source: E. coli BL21 (DE3), purified
T1 sequence (looked up): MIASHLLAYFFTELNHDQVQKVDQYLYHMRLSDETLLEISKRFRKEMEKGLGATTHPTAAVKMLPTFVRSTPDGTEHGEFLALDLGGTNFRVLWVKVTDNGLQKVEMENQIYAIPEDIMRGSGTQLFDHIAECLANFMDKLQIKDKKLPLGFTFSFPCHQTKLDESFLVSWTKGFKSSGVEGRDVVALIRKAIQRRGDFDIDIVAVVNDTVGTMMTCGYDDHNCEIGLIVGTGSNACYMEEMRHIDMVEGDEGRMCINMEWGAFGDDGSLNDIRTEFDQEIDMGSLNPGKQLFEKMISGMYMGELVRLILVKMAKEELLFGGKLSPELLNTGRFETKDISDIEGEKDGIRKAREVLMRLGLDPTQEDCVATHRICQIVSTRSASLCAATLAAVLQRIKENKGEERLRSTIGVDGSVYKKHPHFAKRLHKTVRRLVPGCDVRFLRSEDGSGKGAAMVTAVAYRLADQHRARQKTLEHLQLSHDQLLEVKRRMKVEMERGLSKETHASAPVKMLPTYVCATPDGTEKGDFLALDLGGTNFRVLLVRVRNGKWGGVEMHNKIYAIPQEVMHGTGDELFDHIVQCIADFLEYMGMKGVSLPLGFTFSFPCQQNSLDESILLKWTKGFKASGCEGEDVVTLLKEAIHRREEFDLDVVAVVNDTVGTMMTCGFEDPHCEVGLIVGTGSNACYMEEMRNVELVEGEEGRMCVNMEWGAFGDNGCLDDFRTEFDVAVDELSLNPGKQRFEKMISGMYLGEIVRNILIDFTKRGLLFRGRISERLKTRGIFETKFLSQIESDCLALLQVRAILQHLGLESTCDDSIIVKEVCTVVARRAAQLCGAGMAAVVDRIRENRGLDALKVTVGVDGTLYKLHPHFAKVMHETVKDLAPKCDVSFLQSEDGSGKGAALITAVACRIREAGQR
As to the kind of experiment: pull-down; purified GST-tagged HK2 or GST mixed with His-PIM2; GST-binding resin, more than 8 h, five washes with lysis buffer. Particulars: both partners purified.

B1: His-tagged PIM2 (enzyme)
chain: not shown
notes: Serine/threonine kinase PIM2, human cDNA cloned into pet28a; also called His-PIM2; source: E. coli BL21 (DE3), purified
For B1, the binding result is on record as “binds”.

These data come from PMC6224402, “PIM2-mediated phosphorylation of hexokinase 2 is critical for tumor growth and paclitaxel resistance in breast cancer” (Oncogene, 2018).
